The values below come from US20180118802A1 (published 2018).

Changes are numbered by the printed parent chain. Names and notes keep the numbering of the source.

As usually defined, the Kd is a measure of binding affinity in units of concentration.

T1: RAP-GDNF (UniProt P30533 35-353; P39905 78-211, limits assumed)
T1 construct: also called RAP-GDNF fusion
T1 sequence (looked up): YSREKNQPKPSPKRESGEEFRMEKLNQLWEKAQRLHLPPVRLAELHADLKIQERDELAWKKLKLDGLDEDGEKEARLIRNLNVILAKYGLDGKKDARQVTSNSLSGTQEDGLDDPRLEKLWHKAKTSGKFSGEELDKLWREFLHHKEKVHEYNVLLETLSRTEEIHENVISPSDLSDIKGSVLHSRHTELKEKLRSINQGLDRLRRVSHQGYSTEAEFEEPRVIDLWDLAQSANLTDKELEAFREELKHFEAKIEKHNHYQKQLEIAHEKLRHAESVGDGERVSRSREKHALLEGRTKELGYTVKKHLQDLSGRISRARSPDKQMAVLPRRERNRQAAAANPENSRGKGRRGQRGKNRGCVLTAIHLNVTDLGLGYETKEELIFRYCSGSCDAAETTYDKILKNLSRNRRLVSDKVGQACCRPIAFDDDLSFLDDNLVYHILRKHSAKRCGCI

T2: RAP d3 (human, UniProt P30533 235-353)
T2 construct: also called wild-type RAP d3
T2 sequence: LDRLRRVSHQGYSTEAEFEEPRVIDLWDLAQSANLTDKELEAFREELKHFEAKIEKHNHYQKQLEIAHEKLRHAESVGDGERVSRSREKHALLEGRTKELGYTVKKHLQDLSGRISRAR

B1: GFRα-1 (receptor)
chain: DRLDCVKASDQCLKEQSCSTKYRTLRQCVAGKETNFSLASGLEAKDECRSAMEALKQKSLYNCRCKRGMKKEKNCLRIYWSMYQSLQGNDLLEDSPYEPVNSRLSDIFRVVPFISDVFQQVEHIPKGNNCLDAAKACNLDDICKKYRSAYITPCTTSVSNDVCNRRKCHKALRQFFDKVPAKHSYGMLFCSCRDIACTERRRQTIVPVCSYEEREKPNCLNLQDSCKTNYICRSRLADFFTNCQPESRSVSSCLKENYADCLLAYSGLIGTVMTPNYIDSSSLSVAPWCDCSNSGNDLEECLKFLNFFKDNTCLKNAIQAFGNGSDVTVWQPAFPVQTTTATTTTALRVKNKPLGPAGSENEIPTHVLPPCANLQAQKLKSNVSGNTHLCISNGNYEKEGLGASS
B2: LRP2 CR89 (receptor)
chain: not shown
notes: domain: CR89; also called YVWR; not shown: N-terminal hexahistidine and S-peptide of pET30(+)a
B3: LRP2 CR89 V1047D (receptor, not shown: small tags and cut ends)
chain: PTEQCGLFSFPCKNGRCVPNYYLCDGDDDCHDNSDEQLCGTLNNTCSSSAFTCGHGECIPAHWRCDKRNDCVDGSDEHNCPTHA
notes: also called YDWR
B4: MegaRAP1 d3 A256K (ligand, not shown: small tags and cut ends)
chain: T2 sequence with S13T, E17K, H49Y, E51K, K70E
notes: Revertant of MegaRAP1 d3; also called MegaRAP1 A256K
B5: RAP d3 K256A, K270E (ligand, not shown: small tags and cut ends)
chain: T2 sequence with K56A, K70E
notes: Forward mutant of RAP d3; also called RAP K256A, K270E
B6: LRP2 CR89 R1088D (receptor, not shown: small tags and cut ends)
chain: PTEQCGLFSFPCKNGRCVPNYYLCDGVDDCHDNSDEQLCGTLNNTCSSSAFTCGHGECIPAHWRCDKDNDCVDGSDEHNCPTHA
notes: also called YVWD
B7: RAP d3 H249Y (ligand, not shown: small tags and cut ends)
chain: T2 sequence with H49Y
notes: Forward mutant of RAP d3; also called RAP H249Y
B8: RAP d3 E251K (ligand, not shown: small tags and cut ends)
chain: T2 sequence with E51K
notes: Forward mutant of RAP d3; also called RAP E251K
B9: RAP d3 K270E (ligand, not shown: small tags and cut ends)
chain: T2 sequence with K70E
notes: Forward mutant of RAP d3; also called RAP K270E
B10: MegaRAP1 d3 K251E (ligand, not shown: small tags and cut ends)
chain: T2 sequence with S13T, E17K, H49Y, K56A, K70E
notes: Revertant of MegaRAP1 d3; also called MegaRAP1 K251E
B11: LRP2 CR89 Y1042W (receptor, not shown: small tags and cut ends)
chain: B3 chain with Y22W, D27V
notes: also called WVWR
B12: MegaRAP1 d3 A256K, E270K (ligand, not shown: small tags and cut ends)
chain: T2 sequence with S13T, E17K, H49Y, E51K
notes: Double revertant of MegaRAP1 d3; also called MegaRAP1 A256K, E270K
B13: LRP2 CR89 V1047D R1088D (receptor, not shown: small tags and cut ends)
chain: B3 chain with R68D
notes: also called YDWD
B14: RAP d3 E251K, K270E (ligand, not shown: small tags and cut ends)
chain: T2 sequence with E51K, K70E
notes: Forward mutant of RAP d3; also called RAP E251K, K270E
B15: MegaRAP1 d3 E270K (ligand, not shown: small tags and cut ends)
chain: T2 sequence with S13T, E17K, H49Y, E51K, K56A
notes: Revertant of MegaRAP1 d3; also called MegaRAP1 E270K
B16: RAP d3 E217K (ligand, not shown: small tags and cut ends)
chain: T2 sequence with E17K
notes: Forward mutant of RAP d3; also called RAP E217K

The target in one assay is T1, RAP-GDNF. Put plainly: solid-phase assay, RAP-GDNF coated, serial dilutions of GFRα-1 (FIG. 12).
In assay [1] the target is T2, RAP d3. The assay is described as follows: solid-phase binding assay, CR protein coated, anti-RAP detection. An excerpt: (§1) Alternatively, the affinity differences between MegaRAP I d3 and MegaRAP1 d3 E270K may have been insufficient to alloW the latter to predominate upon iterative panning. A double revertant, T213S, E270K, had binding behavior that was not distinguishable from MegaRAP1 d3 in our assays. […] The binding behavior of the K251E, E270K double revertant implies a strong dependence of the affinity of MegaRAP1 d3 for LRP2 CR89 on the E251K mutation. […] Therefore, the K256A mutation in MegaRAP1 d3 is a crucial determinant of the ability of this variant to discriminate between the two receptor fragments, exerting its effect by negatively impacting affinity for LRP1 CR3-5 while at the same time improving affinity for LRP2 CR89.

Assay [2] addresses T2, RAP d3. The assay is described as above. On the procedure: Solid phase binding assays—Purified, refolded CR protein (1 μg) was bound to Nunc Maxisorp™ 96-well plates in TBS pH 8 supplemented with 5 mM CaCl₂ (TBSC) overnight at 4° C. Wells were washed with TBSC and then blocked with TBSC containing 2% bovine serum albumin (BSA). RAP ligands were then incubated with the immobilized receptor at a range of concentrations for 2 hours in the above blocking buffer supplemented with 0.05% Tween-20 at room temperature. Control wells contained no added ligand. As an additional control, to determine whether the absence of calcium affected binding, 10 mM EGTA was included in the incubation medium for some samples. Wells were washed with TBSTC and bound ligands detected with polyclonal anti-RAP (BP41/42, 1:1,000, BioMarin). Excess primary antibody was removed and wells washed before incubation with the secondary antibody, HRP-conjugated goat anti rabbit IgG (Bio-Rad). After washing, TMB substrate solutions (Bio-Rad) were added to detect HRP. Color development was stopped with 1N HCl. Absorption at 450 nm was measured with a microplate spectrophotometer (Molecular Devices). Data were plotted and Kd values derived by non-linear regression with the assumption of single-site binding (GraphPad Prism).
One premise of this work was that amino acids at A, C, A′ and C′ within the calcium-binding loops of a CR pair were key determinants of binding affinity for RAP and would be similarly important for binding of RAP variants. To test this idea, mutant LRP2 CR89 were prepared in which the native, non-canonical residues at these positions were sequentially substituted with the non-native, canonical residues. As defined above, the A, C, A′, C′ string for LRP2 CR89 is YVWR. Mutants included LRP2 CR89 Y1042W (WVWR), LRP2 CR89 V1047D (YDWR), LRP2 CR89 R1088D (YVWD), LRP2 CR89 V1047D R1088D (YDWD), LRP2 CR89 Y1042W V1047D R1088D (WDWD), LRP2 CR89 Y1042W V1047D (WDWR), LRP2 CR89 Y1042W R1088D (WVWD). Binding to both RAP d3 and MegaRAP1 d3 were measured for each LRP2 CR89 mutant by solid-phase assay.
The source holds these as a separate data set.

For assay [3], the target named is B2. Described as above. The method, then:
(§2) Wells were washed with TBSTC and bound ligands detected with polyclonal anti-RAP (BP41/42, 1:1,000, BioMarin). Excess primary antibody was removed and wells washed before incubation with the secondary antibody, HRP-conjugated goat anti rabbit IgG (Bio-Rad). After washing, TMB substrate solutions (Bio-Rad) were added to detect HRP. Color development was stopped with 1N HCl. Absorption at 450 nm was measured with a microplate spectrophotometer (Molecular Devices). Data were plotted and Kd values derived by non-linear regression with the assumption of single-site binding (GraphPad Prism).
(§3) Next, the binding of RAP d3 and MegaRAP1 d3 proteins to LRP1 CR3-5 and LRP2 CR89 was assessed. […] In all cases, 10 mM EGTA prevented binding of both RAP d3 and MegaRAP1 d3 to CR proteins. Since calcium was the only divalent metal ion present in the binding buffer, this observation is consistent with both RAP d3 and MegaRAP1 d3 binding to calcium-loaded CR pairs. […] Therefore, wild-type RAP d3 and MegaRAP1 d3 have inverted binding preferences for these two receptor fragments.
Target sequence in this assay (P98164 1025-1102): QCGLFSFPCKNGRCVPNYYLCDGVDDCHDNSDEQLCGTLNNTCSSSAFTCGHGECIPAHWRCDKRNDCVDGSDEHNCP

Assay [4] addresses B2. The assay is described as above.
From the text: as §1
Target sequence in this assay (P98164 1025-1102): as above
The source holds these as a separate data set.

A further assay addresses T3, LRP1 CR3-5 (human, UniProt Q07954 852-973).
T3 construct: range 852-973; not shown: N-terminal hexahistidine and S-peptide of pET30(+)a
The assay is described as above. On the procedure:
as §2, §3

T3 sequence (Q07954 852-973, form in doubt): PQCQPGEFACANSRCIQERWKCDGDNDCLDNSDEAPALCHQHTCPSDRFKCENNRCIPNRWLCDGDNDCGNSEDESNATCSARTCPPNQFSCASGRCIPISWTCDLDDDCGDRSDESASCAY

B1 returned a Kd with RAP-GDNF of approximately 5 ng/mL.
B2 displayed a Kd with RAP d3 [1] of more than 300 nM.
Turning to B3, the binding result with RAP d3 [2] is reported as “no binding”.
As to B4, the binding result in the assay with LRP2 CR89 [3] is listed as “no binding”.
As to B5, in the assay with LRP2 CR89 [3], the binding result is given as “no binding”.
As for B6, the binding result in the assay with RAP d3 [2] was “no binding”.
For B7, the binding result with LRP2 CR89 [3] is listed as “no binding”.
As for B8, the binding result in the assay with LRP2 CR89 [3] is reported as “no binding”.
B9: the binding result in the assay with LRP2 CR89 [3] was “no binding”.
B10: in the assay with LRP2 CR89 [3], the binding result is “no binding”.
As to B11, the binding result with RAP d3 [2] is reported as “no binding”.
As for B12, the “fold loss of affinity” value in the assay with LRP2 CR89 [4] is 2 fold.
B13: the binding result with RAP d3 [2] was “no binding”.
With B14, in the assay with LRP2 CR89 [3], the binding result was “no binding”.
Turning to B15, the “% max” value in the assay with LRP1 CR3-5 is 85%.
For B16, in the assay with LRP2 CR89 [3], the binding result was “no binding”.
